B1: purified recombinant S287D PKM2 expressed in bacteria (enzyme)
chain: not shown
notes: PKM2 S287D (phospho-mimetic), recombinant; construct, tag and limits not described; source: expressed in bacteria, purified recombinant
B2: purified recombinant S287A PKM2 expressed in bacteria (enzyme)
chain: not shown
notes: PKM2 S287A, recombinant; construct, tag and limits not described; source: expressed in bacteria, purified recombinant

Target: the molecule itself
Assay: SEC; purified recombinant WT, S287A and S287D PKM2 expressed in bacteria; size exclusion chromatography with molecular mass standards

Protein | stoichiometry N
B1 | 4
B2 | 2
